Data taken from paper PMC12775124, “CUL4A-DDB1-DCAF10 is an N-recognin for N-terminally acetylated Src kinases” (Nature Communications, 2026).

T1: Ac-Lyn^G2A peptide (human, UniProt P07948 2-11, G2A)
T1 construct: Lyn, N-terminal 10-mer without the initiator Met, G2A; Lys3 spacer that carries the C-terminal biotin; also called Ac-Ala peptide; source: synthetic peptide
T1 peptide: Ac-ACIKSKGKDSKKK-biotin

T2: GST-DCAF10 (UniProt Q5QP82 1-559)
T2 construct: DCAF10, full length; the UniProt entry is printed for the AlphaFold 3 model of the same protein; cloning and purification are in the Supplementary Methods; also called purified full-length GST-DCAF10; source: purified
T2 sequence (looked up): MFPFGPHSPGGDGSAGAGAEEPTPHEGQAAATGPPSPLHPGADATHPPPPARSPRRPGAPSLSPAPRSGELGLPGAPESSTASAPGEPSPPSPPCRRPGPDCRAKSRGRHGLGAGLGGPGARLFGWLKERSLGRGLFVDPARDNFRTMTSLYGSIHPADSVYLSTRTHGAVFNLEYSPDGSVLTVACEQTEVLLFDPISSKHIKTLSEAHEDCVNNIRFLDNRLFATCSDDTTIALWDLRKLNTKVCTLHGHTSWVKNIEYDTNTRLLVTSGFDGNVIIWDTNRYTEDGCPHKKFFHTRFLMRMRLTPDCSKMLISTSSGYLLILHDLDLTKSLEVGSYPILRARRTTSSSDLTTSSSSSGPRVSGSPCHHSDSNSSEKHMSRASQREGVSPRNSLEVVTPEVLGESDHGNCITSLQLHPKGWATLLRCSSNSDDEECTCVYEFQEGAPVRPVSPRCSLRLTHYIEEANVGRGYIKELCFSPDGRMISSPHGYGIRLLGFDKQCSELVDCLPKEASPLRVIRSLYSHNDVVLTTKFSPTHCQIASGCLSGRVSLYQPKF

B1: DDB1- and CUL4A-associated factor 10 (natural protein, human (endogenous in HeLa and DLD-1), UniProt Q5QP82 1-559, looked up)
chain: T2 sequence (looked up)
notes: DCAF10, endogenous protein of human cell lysates; also called DCAF10; WDR32; source: endogenous, HeLa lysate; endogenous, DLD-1 Lyn KO Flp-In T-REx cell lysate
B2: Nt-acetylated Lyn peptide (peptide)
peptide: Ac-GCIKSKGKDSKKK-biotin
notes: Lyn, N-terminal 10-mer without the initiator Met; Lys3 spacer that carries the C-terminal biotin; also called Nt-Ac Lyn; Ac-Lyn; source: synthetic peptide
B3: Nt-acetylated Fyn peptide (peptide)
peptide: Ac-GCVQCKDKEAKKK-biotin
modifications: cysteine pairing not given here
notes: Fyn, N-terminal 10-mer without the initiator Met; Lys3 spacer that carries the C-terminal biotin; also called Nt-Ac Fyn; Ac-Fyn; source: synthetic peptide
B4: Nt-acetylated Src peptide (peptide)
peptide: Ac-GSNKSKPKDAKKK-biotin
notes: Src, N-terminal 10-mer without the initiator Met; Lys3 spacer that carries the C-terminal biotin; also called Nt-Ac Src; Ac-Src; source: synthetic peptide

What was measured:
[1] = target: B2; assay: affinity purification with mass spectrometry; biotinylated 10-mer Nt-peptides on magnetic streptavidin beads incubated with HeLa lysate; retained proteins digested on bead and quantified label-free by LC-MS (DIA); pairwise comparison of two peptides; n = 3; details: one partner purified
[2] = target: B4; assay: as above; details: one partner purified
Ac-Lyn^G2A peptide = target: T1, Ac-Lyn^G2A peptide; assay: as above; details: one partner purified
GST-DCAF10 = target: T2, GST-DCAF10; assay: pull-down; Nt-peptides bound to streptavidin beads incubated with purified GST-DCAF10 or GST alone; Western blots against GST, DCAF10 and streptavidin; n = 3; details: both partners purified

B1
fold stronger than Ac-THOC7 [1]: ~57 fold
log2 fold change (Nt-Ac against Nt-free Src peptide, Fig. 1c) [2]: ~5 log2
fold lower than the Ac-Gly peptide (Ac-Lyn^WT) (Ac-Lyn^G2A peptide): 15 fold

B2
binding result (GST-DCAF10): binds

B3
binding result (GST-DCAF10): binds

B4
binding result (GST-DCAF10): binds
